This sample holds only a part of the variants without activity.
B1: TPR 5TU (parent)
chain: GGAUCUUCUCGAUCUAACAAAAAAGACAAAUCUGCCACAAAGCUUGAGAGCAUCUUCGGAUGCAGAGGCGGCAGCCUUCGGUGGCGCGAUAGCGCCAACGUUCUCAACUAUGACACGCAAAACGCGUGCUCCGUUGAAUGGAGUUUAUCAUG

Variants of: B1
Assay: polymerase ribozyme fitness, log enrichment relative to wild type (log ratio); higher = more active; in vitro selection for triplet polymerase activity
Outline: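 Each subunit of a heterodimeric triplet polymerase ribozyme was mutagenized into a library by PCR, transcribed, and subjected to one round of in vitro selection, run in triplicate. Libraries were annealed with a biotinylated primer, the partner subunit and triplets, incubated frozen at −7 °C, and extended constructs were gel-excised, captured on streptavidin beads and recovered by RT-PCR. Input and output libraries were sequenced on Illumina, keeping genotypes with ≥10 input reads and ≥1 read per output. Fitness is log base 2 of genotype enrichment divided by wild-type enrichment, from inverse-variance-weighted replicate averages.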

Variant | polymerase ribozyme fitness (log ratio)
GGAUCUUCUCGAUCUAACUAUAAAGACAAAUCUGCCACAAAGCUUGAGAGCAUCUUCGGAUGCAGAGGCGGCAGCCUUCGGUGGCGCGAUAGCACCAACGUUCUCAACUAUGACACGCAAAACGCGUGCUCCGUUGAAUGGAGUUUAUCAUG | -1.09
GGAUCUUCUCGAUCUAACUAAAAAGACAAAUCUGCCACAAAGCUUGCGAGCAUCGUCGGAUGCAGAGGCGGCAGCCUUCGGUGGCGUGAUAUCGCCAACGCUCUCAACUAUGACACGCAAAACGCGUGCUCCGUUGAAUGGAGUUUAUCAUG | -2.81
GGAUCUUCUCGAUCUAACUAAAAAGACUAAUCUGCCACAAAGCUUGAGAGCAUCUUCGGAUGCAGACGCGGCAGCCUUCGGAGGCGAGAUAGCGCCAACGUUCUCAACUAUGACACGCAAACCGCGCGCUCCGUUGAAUGGAGUCUAUCAUG | ≤ -4.2
GGAUCUUCUCGAUCUAACUAAAAUGACAAAUCUGCCACAAAGCUUUAGCGCAUCUUCGGAUGCAGAGGCGGCAGCCUUCGGGGGCGCGAUAGCGCCAAAGUUCUCAACUAUGACACGCAAAACGCGUGCUCCGUUGAAUGGAGUUUAUCAUG | ≤ -4.2
GGAUCUUCUCGAUCUAACUAAAAAGACAAAUCUGCCACAGAGCUUGAGAGCAUCUUCGGAUGCAGAGGCGGCAGCCUUCGGUGGCGCGAUAGCGCCAACGUUCUCAACUAUGACACGCAAAACACGUGCUCCGUUGAAUGGAGUUUAUCAUG | -4.11
GGAUCUUCUCGAUCUAACUAAAAAGACAAAUCUGCCACACAGCUUGAGAGCAUCUUCGGAUGCAGAGGCGGCAGCCUUCGGUGGCGCGAUUGCGGCAACGUUCUCAACUAUGACACGCAAAACGCGUGCUCCGUUGAAUGGAGUUUAUCAUG | ≤ -4.2
GGAUCUUCUCGAUCUAACUAAAAAGACAUAUCUGCCACGAAGCGUGAGAGCAUCUUCGGAUGCAGAGGCGGCAGCCUUCGGUGGUGCGAUAGCGCCAACGUUCUCAACUAUGACACGCAAAACGCGUGCUCCGUUGAAUGGAUUUUAUCAUG | ≤ -4.2
GGAUCUUCUCGAUCUAACUAAAAAGACAAAUCUGCCACAUAGCUUGAGAGCAUAUUCGGGUGCAGAGGCGGCAGCCUUCGGUGGCGCGAUAGCGCUAACGUUCUCAACUAUGACACGCAAAACGCGUGCUCCGUUGAAUGGAGUUUAUCAUG | -2.61
GGAUCUUCUCGAUCUAACUAAAAAGACUAAUCUGCCACAAAGCUUGAGAGCGUCUUCGGAUGCAGAGGCGGCAGCCUUCGGUGGCGCGAUAGCGCCAACGUUCUGAACUAUGACACGCAAAACGCCUGCUCCGUUGAAUGCAGUUUAAUCUG | ≤ -4.2
GGAUCUUCUCGAUCUAACUAACAAGACAAAUCUGCCACAAAGCUUGAGAGCAUCGUCGGAUGCCGAGGCGGCGGCCUUCGGUGGCGCGAUCGCGCCAACGUUCUCAACUAUGACACGCAAAACGCGUGCUCCGUUGAAUGGAGAUUAUCAUG | ≤ -4.2
GGAUCUUCUCGAUCUAACUAAAAAGACCAAUCUGCCACACCGCGUGAGAGCAUCUUCGGAUGCAGAGGCGGCAGCCUUCGGUGGAGCGAUAGCGCCAACGUUCUCAACUAUGCCACGCAAAACGCGUGCUCCGUUGAAUGGAGUUUAUCAUG | ≤ -4.2
GGAUCUUCUCGAUCUAACUAAAAAGACAAAUCUGCCACAAAGCUUGCGAGCAUCUUCGGAUGCAGAGGCGGCAGCCUUCGGUGGCGCGAUAGUGCCAACGUUCUCAACUAUGACACGCAAAACGCGUGCUCCGUUGAAUGGAGUUUAUCAUG | -1.1
GGAUCUUCUCGAUCUAACUAAAAAGUCAAAUCUGCCACAAAGCUUAAGAGCAUCUUCGGAUGCAGAGGCGGCAGCCUUCGGUGGCGAGAUUGCACCAACGUUCUCAACUAUGACACGCAAAACGCGCGCUCCGUUGAAUGGACUUUAUCAUG | ≤ -4.2
GGAUCUUCUCGAUCUAACUAAAAAGACAAAUCUGCCACAAAGCUUGAGAGCCUCUUCGGAUGCAGAGGCGGCAGCCUUCGGUGGCGCGAUAGCGCCAACGUUCUCAACUAUGACACGCAAAACGCGUGCUCCGUUGAAUGGAGUUUAUCAUG | -1.34
GGAUCUUCUCGAUCUAACUAAAAAGACAAAUCUGCCACAAAGCUUGAGCGCGUCUUCGGAUGCAGAGGCGGCAGCCUUCGGUGGCGCGAUAGCGCCAACGUUCUCGACUAUGACACGCAAAACGCGUGCUCCGUUGAAUGGAGUUUAUCAUG | ≤ -4.2
GGAUCUUCUCGAUCUAACUAAACAGACAGAUCUGCCACAAAGCUUGAGAGCAUCUUCGGAUGCAGAGGCGGCAGCCUUCGGUCGCGCGAUAGCGCCUACGUUGUCAACUAUGACACGCAAAACGCGUGCUCCGUUGAACGGAGUUUAUCAUG | ≤ -4.2
GGAUCUUCUCGAUCUAACUAAAAAGACAAAUCUGCCACAAAGCUUGAGCGCAUAUUCGGAUACAGAGGCGGCAGCCUUCGGUGGCGCGAUAGCGCCAACGUUCUCAACUAUGACACGCGAAACGUGUGCUCCGUUGAAUGGAGAUUAUCAUG | ≤ -4.2
GGAUCUUCUCGAUCUAACUAAAAAGACAAAUCUGCCUCAAAGCGUGAGAGCAUCUUCGGAUGCAGUGGCGGCAGCCUUCGGUGGCGCGAUAUCGCAAACGUUCUCAACUAUGACACGCAAAAUACGUGCUCCGUUGAAUGGAGUUUAUCAUG | ≤ -4.2
GGAUCUUCUCGAUCUAACUAAAAAGACAAAUCUGCCACAAAGCUUGAGGGCAUCUUAGGUUGCAGAGGCGGCAGCCUUCGGUGGCGCGAUAGCGCCAACGUUCUCAACUAUGACAUGCAAAACGCGUGCUCCGUUGAAUGGAGUUUAUCAUG | -2.27

Source: the RNAGym collection of RNA variant scans (doi:10.1073/pnas.2313332121)
